Literature values in US20240189387A1, “DOSING REGIMENS FOR HEMATOPOIETIC STEM CELL MOBILIZATION FOR STEM CELL TRANSPLANTS IN MULTIPLE MYELOMA PATIENTS” (Ensoma, Inc., priority 2021, published 2024).
Where two headings read alike, the source gives them in different places.

Assays:
[1] = test system: neutrophil activation markers (L-selectin, CD11b, CD18, CD66); conditions: 5 days of G-CSF treatment, Falanga et al., Blood 1999; cited from earlier work
[2] = test system: CD90+CD45RA− among CD34+ cells; conditions: Goncalves ASTCT 2021; cited from earlier work
[3] = G-CSF; bone pain, headache, myalgia, and/or fatigue (up to 1+ week); Pulsiper et al. 2009; cited from earlier work
[4] = test system: graft cell subsets (T cells, B cells, NK cells); conditions: cited from earlier work
[5] = Chen et al., 2019, 2 LP plerixafor, 1 LP G-CSF
[6] = Devine et al, 2008, yield of 1 LP
[7] = G-CSF, Chaidos et al, Blood 2012

B1: G-CSF: Filgrastim (G-CSF), most common clinical hematopoietic stem cell mobilization protocol, five days (protein, chains of the INN, looked up)
chain: MTPLGPASSLPQSFLLKCLEQVRKIQGDGAALQEKLCATYKLCHPEELVLLGHSLGIPWAPLSSCPSQALQLAGCLSQLHSGLFLYQGLLQALEGISPELGPTLDTLQLDVADFATTIWQQMEELGMAPALQPTQGAMPAFASAFQRRAGGVLVASHLQSFLEVSYRVLRHLAQP
- fold increase in neutrophil activation markers [1]: ~2.7 fold
- CD90+CD45RA− among CD34+ cells with a regimen that includes G-CSF [2]: 6%
- tolerability [3]: Majority with bone pain,
- graft CD34+ Median (range) ([4]; Chen et al., 2019, 2 LP for plerixafor (N = 50+), 1 LP for G-CSF (N = 112+)): 4.2e+06 kg⁻¹
- graft CD3+ Median (range) [4, 5]: 2.5e+08 kg⁻¹
- graft CD4+ Median (range) [4, 5]: 1.5e+08 kg⁻¹
- graft CD8+ Median (range) [4, 5]: 7e+07 kg⁻¹
- graft CD19+ Median (range) [4, 5]: 5e+07 kg⁻¹
- graft CD56+ Median (range) [4, 5]: 1e+07 kg⁻¹
- graft CD3+ Median (range) [4, 6]: 1.3 (1.2-6.8) ×10^8/kg
- graft CD4+ Median (range) [4, 6]: 1.1 (0.7-3.2) ×10^8/kg
- graft CD8+ Median (range) [4, 6]: 0.4 (0.3-3.4) ×10^8/kg
- graft CD56+ Median (range) [4, 6]: 0.2 (0.1-0.5) ×10^8/kg
- graft CD34+ Median (range) ([4]; Devine et al, 2008, yield of 1 LP, plerixafor N = 24, G-CSF N = 8): 4.2 (2.5-18.7) ×10^6/kg
- TNC/kg donor weight Median (range) ([4]; G-CSF, 40 healthy donors, Singhal et al, BMT 2000): 7.2 (3.2-14.0) ×10^8 cells
- frequency of CD3+ T cells in graft, Median ([4]; G-CSF, 78 healthy donors, Chaidos et al, Blood 2012): 45.3 % of CD45+
- frequency of CD4+ T cells in graft, Median [4, 7]: 29.8 % of CD45+
- frequency of CD8+ T cells in graft, Median [4, 7]: 11.8 % of CD45+
- frequency of CD19+ B cells in graft, Median [4, 7]: 10.5 % of CD45+
- frequency of CD56+ NK cells in graft, Median [4, 7]: 3.2 % of CD45+
- frequency of Tregs in graft, Median [4, 7]: 3.5 % of CD4+ T cells
- frequency of iNKT cells in graft, Median [4, 7]: 0.04 % of CD3+
